# From article PMC8497999 (iScience, 2021)
# Where two headings read alike, the source gives them in different places.
# T1: His6-ECSIT (mature human mitochondrial ECSIT with N-terminal His tag) (human, UniProt Q9BQ95 49-431)
# T1 sequence: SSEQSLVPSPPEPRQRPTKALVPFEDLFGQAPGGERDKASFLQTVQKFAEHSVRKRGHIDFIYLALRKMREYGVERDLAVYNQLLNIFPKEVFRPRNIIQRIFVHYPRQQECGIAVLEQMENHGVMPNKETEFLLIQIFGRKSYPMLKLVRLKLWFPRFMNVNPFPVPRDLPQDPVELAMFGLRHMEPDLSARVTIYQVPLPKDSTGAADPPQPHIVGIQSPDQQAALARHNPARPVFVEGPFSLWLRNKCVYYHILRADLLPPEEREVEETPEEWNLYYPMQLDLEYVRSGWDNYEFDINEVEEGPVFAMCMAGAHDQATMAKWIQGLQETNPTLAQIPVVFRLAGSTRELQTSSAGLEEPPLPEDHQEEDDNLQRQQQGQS
# What was measured:
# SEC-SAXS = biological target: the molecule itself; test: SEC-SAXS
# [1] = biological target: T1, His6-ECSIT (mature human mitochondrial …); test: SEC
# [2] = biological target: T1, His6-ECSIT (mature human mitochondrial …); test: SEC; remark: listed apart in the source
Binder,stoichiometry N (SEC-SAXS),stoichiometry N [1],stoichiometry N [2]
ACAD9 (non-tagged wild type) (enzyme) AFAKELFLGKIKKKEVFPFPEVSQDELNEINQFLGPVEKFFTEEVDSRKIDQEGKIPDETLEKLKSLGLFGLQVPEEYGGLGFSNTMYSRLGEIISMDGSITVTLAAHQAIGLKGIILAGTEEQKAKYLPKLASGEHIAAFCLTEPASGSDAASIRSRATLSEDKKHYILNGSKVWITNGGLANIFTVFAKTEVVDSDGSVKDKITAFIVERDFGGVTNGKPEDKLGIRGSNTCEVHFENTKIPVENILGEVGDGFKVAMNILNSGRFSMGSVVAGLLKRLIEMTAEYACTRKQFNKRLSEFGLIQEKFALMAQKAYVMESMTYLTAGMLDQPGFPDCSIEAAMVKVFSSEAAWQCVSEALQILGGLGYTRDYPYERILRDTRILLIFEGTNEILRMYIALTGLQHAGRILTTRIHELKQAKVSTVMDTVGRRLRDSLGRTVDLGLTGNHGVVHPSLADSANKFEENTYCFGRTVETLLLRFGKTIMEEQLVLKRVANILINLYGMTAVLSRASRSIRIGLRNHDHEVLLANTFCVEAYLQNLFSLSQLDKYAPENLDEQIKKVSQQILEKRAYICAHPLDRTC,2,,
His6-SMT3-NDUFAF1 (SUMO fusion of mature human NDUFAF1) (natural protein) YPFLGIRFAEYSSSLQKPVASPGKASSQRKTEGDLQGDHQKEVALDITSSEEKPDVSFDKAIRDEAIYHFRLLKDEIVDHWRGPEGHPLHEVLLEQAKVVWQFRGKEDLDKWTVTSDKTIGGRSEVFLKMGKNNQSALLYGTLSSEAPQDGESTRSGYCAMISRIPRGAFERKMSYDWSQFNTLYLRVRGDGRPWMVNIKEDTDFFQRTNQMYSYFMFTRGGPYWQEVKIPFSKFFFSNRGRIRDVQHELPLDKISSIGFTLADKVDGPFFLEIDFIGVFTDPAHTEEFAYENSPELNPRLFK,,1 NDUFAF1 monomer per ECSIT monomer (2:2),1 monomer:monomer
